Experimental data taken from patent publication US20200369765A1.
Values belong to the substance of their own block, whether it stands above or below them.

Legend:
Human Siglec-9 (human) [1] = target: Human Siglec-9 (human) (UniProt Q9Y336); test: flow cytometry titration on neuraminidase-treated moDCs, goat F(ab')2 anti-human IgG (Fc) PE; table under the right panel; the curve itself is flat
Human Siglec-9 (human) [2] = target: Human Siglec-9 (human) (UniProt Q9Y336); test: flow cytometry titration on untreated monocyte-derived dendritic cells (moDCs), goat F(ab')2 anti-human IgG (Fc) PE; table under the left panel; the curve itself is flat
Human Siglec-7 (human) = Human Siglec-7 (human) (UniProt Q9Y286); test: flow cytometry on fresh purified human NK cells (CD3-/CD56+), isotype control staining
Human Siglec-9 (human) [3] = target: Human Siglec-9 (human) (UniProt Q9Y336); test: as above

Sequence of Human Siglec-9 (human) (Q9Y336 18-463): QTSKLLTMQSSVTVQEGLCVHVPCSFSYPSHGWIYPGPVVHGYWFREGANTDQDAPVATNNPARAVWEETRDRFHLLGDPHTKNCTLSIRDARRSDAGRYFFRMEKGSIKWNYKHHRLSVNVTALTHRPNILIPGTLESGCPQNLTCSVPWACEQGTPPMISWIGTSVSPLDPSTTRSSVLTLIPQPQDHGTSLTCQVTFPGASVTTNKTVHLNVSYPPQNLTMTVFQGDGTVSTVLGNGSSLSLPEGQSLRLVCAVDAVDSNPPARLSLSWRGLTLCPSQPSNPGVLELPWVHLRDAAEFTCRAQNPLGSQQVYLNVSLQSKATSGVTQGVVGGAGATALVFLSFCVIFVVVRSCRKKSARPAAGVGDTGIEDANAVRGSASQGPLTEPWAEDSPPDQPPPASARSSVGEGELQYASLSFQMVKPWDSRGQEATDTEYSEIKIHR
Sequence of Human Siglec-7 (human) (Q9Y286 19-467): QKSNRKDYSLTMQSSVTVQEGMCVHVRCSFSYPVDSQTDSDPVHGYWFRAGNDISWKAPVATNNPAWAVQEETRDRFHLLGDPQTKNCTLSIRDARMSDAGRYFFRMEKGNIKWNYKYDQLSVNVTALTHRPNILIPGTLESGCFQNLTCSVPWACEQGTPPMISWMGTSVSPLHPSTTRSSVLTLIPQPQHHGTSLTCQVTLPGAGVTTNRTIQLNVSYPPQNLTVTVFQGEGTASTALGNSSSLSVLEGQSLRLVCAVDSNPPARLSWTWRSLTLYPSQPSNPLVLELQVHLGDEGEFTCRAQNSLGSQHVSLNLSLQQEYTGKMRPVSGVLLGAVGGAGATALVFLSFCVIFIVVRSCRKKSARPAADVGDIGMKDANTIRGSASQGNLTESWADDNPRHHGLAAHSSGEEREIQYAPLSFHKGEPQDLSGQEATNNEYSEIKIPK

EC50 (Human Siglec-9 (human) [1]): 1.22 µg/mL
EC50 (Human Siglec-9 (human) [2]): 2.24 µg/mL
Substance: Isotype control (antibody)

percent of NK cells in quadrant Q1 (APC positive, PE negative) (Human Siglec-7 (human)): 0.975%
percent of NK cells in quadrant Q2 (APC positive, PE positive) (Human Siglec-7 (human)): 0.34%
Substance: Isotype control - APC (antibody)

percent of NK cells in quadrant Q2 (APC positive, PE positive) (Human Siglec-9 (human) [3]): 0.34%
percent of NK cells in quadrant Q3 (PE positive, APC negative) (Human Siglec-9 (human) [3]): 2.54%
Substance: Isotype control - PE (antibody)
